Reference: IntAct's records for PubMed 35512704

B1: Mothers against decapentaplegic homolog 4 (Homo sapiens), Q13485 (parent)
chain: MDNMSITNTPTSNDACLSIVHSLMCHRQGGESETFAKRAIESLVKKLKEKKDELDSLITAITTNGAHPSKCVTIQRTLDGRLQVAGRKGFPHVIYARLWRWPDLHKNELKHVKYCQYAFDLKCDSVCVNPYHYERVVSPGIDLSGLTLQSNAPSSMMVKDEYVHDFEGQPSLSTEGHSIQTIQHPPSNRASTETYSTPALLAPSESNATSTANFPNIPVASTSQPASILGGSHSEGLLQIASGPQPGQQQNGFTGQPATYHHNSTTTWTGSRTAPYTPNLPHHQNGHLQHHPPMPPHPGHYWPVHNELAFQPPISNHPAPEYWCSIAYFEMDVQVGETFKVPSSCPIVTVDGYVDPSGGDRFCLGQLSNVHRTEAIERARLHIGKGVQLECKGEGDVWVRCLSDHAVFVQSYYLDREAGRAPGDAVHKIYPSAYIKVFDLRQCHRQMQQQAATAQAAAAAQAAAVAGNIPGPGSVGGIAPAISLSAAAGIGVDDLRRLCILRMSFVKGWGPDYPRQSIKETPCWIEIHLHRALQLLDEVLHTMPIADPQPLD
partner: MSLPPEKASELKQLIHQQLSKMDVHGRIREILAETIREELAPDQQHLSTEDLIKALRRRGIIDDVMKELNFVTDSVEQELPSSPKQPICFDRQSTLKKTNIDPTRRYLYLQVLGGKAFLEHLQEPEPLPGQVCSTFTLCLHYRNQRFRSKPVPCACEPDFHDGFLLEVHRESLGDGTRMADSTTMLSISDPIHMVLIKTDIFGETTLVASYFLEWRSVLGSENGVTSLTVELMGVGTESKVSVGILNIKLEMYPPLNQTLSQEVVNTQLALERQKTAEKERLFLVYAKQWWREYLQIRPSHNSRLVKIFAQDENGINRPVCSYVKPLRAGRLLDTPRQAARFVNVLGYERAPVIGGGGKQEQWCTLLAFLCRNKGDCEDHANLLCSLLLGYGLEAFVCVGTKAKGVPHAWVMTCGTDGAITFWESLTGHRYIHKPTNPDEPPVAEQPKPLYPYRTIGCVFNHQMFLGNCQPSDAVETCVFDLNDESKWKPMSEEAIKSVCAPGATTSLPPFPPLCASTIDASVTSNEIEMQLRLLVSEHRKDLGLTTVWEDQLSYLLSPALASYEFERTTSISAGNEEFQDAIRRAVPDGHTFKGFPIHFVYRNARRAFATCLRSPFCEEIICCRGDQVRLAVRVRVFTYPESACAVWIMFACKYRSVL
B2: Mothers against decapentaplegic homolog 4 (Homo sapiens), Q13485 (parent)
chain: B1 chain
partner: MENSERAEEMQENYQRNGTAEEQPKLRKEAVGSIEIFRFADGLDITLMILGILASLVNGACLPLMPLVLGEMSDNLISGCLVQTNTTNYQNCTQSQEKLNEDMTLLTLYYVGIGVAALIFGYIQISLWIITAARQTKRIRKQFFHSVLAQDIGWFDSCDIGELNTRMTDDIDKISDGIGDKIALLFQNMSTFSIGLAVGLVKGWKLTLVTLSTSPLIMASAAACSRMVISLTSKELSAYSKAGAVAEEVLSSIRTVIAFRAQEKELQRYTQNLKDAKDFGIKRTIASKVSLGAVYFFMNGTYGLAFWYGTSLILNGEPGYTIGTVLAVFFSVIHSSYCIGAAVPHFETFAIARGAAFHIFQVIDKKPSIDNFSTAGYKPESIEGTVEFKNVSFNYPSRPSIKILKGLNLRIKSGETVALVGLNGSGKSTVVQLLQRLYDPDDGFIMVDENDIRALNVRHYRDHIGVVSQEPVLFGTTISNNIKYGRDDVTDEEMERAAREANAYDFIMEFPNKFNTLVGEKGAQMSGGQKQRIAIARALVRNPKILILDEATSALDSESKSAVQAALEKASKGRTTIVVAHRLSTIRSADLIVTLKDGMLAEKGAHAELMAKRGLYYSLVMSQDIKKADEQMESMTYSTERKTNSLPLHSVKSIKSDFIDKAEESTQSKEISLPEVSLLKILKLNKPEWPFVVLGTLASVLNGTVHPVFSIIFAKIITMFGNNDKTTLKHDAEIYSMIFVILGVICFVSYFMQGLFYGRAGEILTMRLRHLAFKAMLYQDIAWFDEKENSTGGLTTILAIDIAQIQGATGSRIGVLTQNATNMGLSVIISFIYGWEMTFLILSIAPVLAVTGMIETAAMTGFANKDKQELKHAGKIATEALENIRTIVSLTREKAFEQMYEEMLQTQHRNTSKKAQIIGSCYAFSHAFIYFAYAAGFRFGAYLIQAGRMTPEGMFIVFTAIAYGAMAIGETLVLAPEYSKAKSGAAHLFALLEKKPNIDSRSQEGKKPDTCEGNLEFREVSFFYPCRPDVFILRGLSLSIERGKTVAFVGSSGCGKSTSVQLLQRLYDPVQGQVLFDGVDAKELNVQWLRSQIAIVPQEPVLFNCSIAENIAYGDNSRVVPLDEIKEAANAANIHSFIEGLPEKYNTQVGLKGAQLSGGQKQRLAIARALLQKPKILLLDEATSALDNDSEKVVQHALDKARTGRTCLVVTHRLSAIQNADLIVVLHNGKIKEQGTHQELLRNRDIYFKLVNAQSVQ
B3: Mothers against decapentaplegic homolog 4 (Homo sapiens), Q13485 (parent)
chain: B1 chain
partner: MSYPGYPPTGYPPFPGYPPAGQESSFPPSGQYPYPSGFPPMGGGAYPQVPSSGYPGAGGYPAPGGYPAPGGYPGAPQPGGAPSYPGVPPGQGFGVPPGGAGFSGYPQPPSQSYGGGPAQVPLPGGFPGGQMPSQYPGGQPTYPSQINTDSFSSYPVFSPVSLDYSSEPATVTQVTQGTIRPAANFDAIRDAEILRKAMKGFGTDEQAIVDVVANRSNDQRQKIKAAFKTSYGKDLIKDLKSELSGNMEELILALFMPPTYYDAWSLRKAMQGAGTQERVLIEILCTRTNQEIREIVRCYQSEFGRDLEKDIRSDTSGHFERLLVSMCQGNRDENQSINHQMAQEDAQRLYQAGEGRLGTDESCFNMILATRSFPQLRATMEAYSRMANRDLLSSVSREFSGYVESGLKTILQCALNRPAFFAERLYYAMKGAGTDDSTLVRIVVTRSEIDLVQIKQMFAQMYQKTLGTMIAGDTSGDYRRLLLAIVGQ
B4: Mothers against decapentaplegic homolog 4 (Homo sapiens), Q13485 (parent)
chain: B1 chain
partner: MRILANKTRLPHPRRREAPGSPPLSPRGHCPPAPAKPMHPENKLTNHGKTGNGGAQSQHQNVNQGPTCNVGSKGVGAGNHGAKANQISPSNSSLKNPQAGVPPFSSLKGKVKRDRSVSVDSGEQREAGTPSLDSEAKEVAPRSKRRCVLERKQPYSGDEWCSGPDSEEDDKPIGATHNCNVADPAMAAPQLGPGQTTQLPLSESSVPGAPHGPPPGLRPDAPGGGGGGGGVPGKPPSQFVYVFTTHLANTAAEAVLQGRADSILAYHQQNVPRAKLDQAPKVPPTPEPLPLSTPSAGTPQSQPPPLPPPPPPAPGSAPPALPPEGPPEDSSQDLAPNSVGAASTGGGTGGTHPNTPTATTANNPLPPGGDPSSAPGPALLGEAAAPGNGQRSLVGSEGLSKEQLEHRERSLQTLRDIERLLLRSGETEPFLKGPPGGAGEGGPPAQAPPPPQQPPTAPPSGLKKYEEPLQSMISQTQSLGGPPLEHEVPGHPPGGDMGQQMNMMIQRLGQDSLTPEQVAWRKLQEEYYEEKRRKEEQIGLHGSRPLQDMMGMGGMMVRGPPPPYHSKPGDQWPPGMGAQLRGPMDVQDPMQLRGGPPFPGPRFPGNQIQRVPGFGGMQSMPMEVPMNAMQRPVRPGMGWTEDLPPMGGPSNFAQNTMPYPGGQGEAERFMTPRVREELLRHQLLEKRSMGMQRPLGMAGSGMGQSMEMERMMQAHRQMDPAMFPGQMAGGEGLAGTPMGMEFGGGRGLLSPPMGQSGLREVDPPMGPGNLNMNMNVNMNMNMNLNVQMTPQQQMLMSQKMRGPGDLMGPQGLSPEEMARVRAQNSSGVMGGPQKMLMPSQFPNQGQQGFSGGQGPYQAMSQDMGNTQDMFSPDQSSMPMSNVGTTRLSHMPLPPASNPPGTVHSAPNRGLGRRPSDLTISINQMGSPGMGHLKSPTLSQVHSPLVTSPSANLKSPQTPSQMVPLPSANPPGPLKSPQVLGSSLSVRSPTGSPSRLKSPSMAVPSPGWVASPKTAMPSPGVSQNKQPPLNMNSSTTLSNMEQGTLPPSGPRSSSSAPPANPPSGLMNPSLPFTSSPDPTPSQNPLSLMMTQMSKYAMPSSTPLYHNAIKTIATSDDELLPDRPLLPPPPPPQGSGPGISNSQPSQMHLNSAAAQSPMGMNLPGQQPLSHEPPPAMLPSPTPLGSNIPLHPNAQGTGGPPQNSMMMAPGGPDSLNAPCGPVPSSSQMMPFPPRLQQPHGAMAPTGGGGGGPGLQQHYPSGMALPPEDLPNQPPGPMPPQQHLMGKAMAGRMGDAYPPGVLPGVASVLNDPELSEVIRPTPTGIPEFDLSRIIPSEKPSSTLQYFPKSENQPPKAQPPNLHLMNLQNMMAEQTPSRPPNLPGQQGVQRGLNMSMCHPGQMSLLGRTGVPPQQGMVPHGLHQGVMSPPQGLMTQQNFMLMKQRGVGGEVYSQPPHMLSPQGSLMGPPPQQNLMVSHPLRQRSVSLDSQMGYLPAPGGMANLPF

Variants of: B1
Conditions: with cep76_human CEP76, Q8TAP6

Variant	effect of a mutation on the interaction
R361H	with no effect

Variants of: B1
Conditions: with cep76_human CEP76, Q8TAP6
Remark: another data set of the same source

Variant	effect of a mutation on the interaction
R361C	with no effect

Variants of: B1
Conditions: with cep76_human CEP76, Q8TAP6
Remark: another data set of the same source

Variant	effect of a mutation on the interaction
D351H	with no effect

Variants of: B2
Conditions: with abcb5_human ABCB5, Q2M3G0

Variant	effect of a mutation on the interaction
R361C	with no effect

Variants of: B2
Conditions: with abcb5_human ABCB5, Q2M3G0
Remark: another data set of the same source

Variant	effect of a mutation on the interaction
R361H	with no effect

Variants of: B2
Conditions: with abcb5_human ABCB5, Q2M3G0
Remark: another data set of the same source

Variant	effect of a mutation on the interaction
D351H	with no effect

Variants of: B2
Conditions: with abcb5_human ABCB5, Q2M3G0
Remark: another data set of the same source

Variant	effect of a mutation on the interaction
G386D	with no effect

Variants of: B3
Conditions: with anxa7_human ANXA7, P20073

Variant	effect of a mutation on the interaction
D351H	with no effect

Variants of: B3
Conditions: with anxa7_human ANXA7, P20073
Remark: another data set of the same source

Variant	effect of a mutation on the interaction
G386D	with no effect

Variants of: B3
Conditions: with anxa7_human ANXA7, P20073
Remark: another data set of the same source

Variant	effect of a mutation on the interaction
R361C	with no effect

Variants of: B3
Conditions: with anxa7_human ANXA7, P20073
Remark: another data set of the same source

Variant	effect of a mutation on the interaction
R361H	with no effect

Variants of: B4
Conditions: with bcl9l_human BCL9L

Variant	effect of a mutation on the interaction
D351H	with no effect
